From publication PMC12748787 come the findings set out here.

The target of this experiment is Trx-CaV1.2 JBM (mouse) (UniProt Q01815). Description: ITC. In general terms: In ITC the heat of successive injections is recorded.

A word on the Kd: it is the constant that tells how readily two partners part at equilibrium. Low readings indicate higher affinity, high ones lower affinity.

Some results are limits rather than exact numbers.

Sequence of Trx-CaV1.2 JBM (mouse) (Q01815 1647-1777): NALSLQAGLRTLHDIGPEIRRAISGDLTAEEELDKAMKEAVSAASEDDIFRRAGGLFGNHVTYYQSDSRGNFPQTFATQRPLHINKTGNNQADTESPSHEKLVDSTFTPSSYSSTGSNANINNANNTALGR

The substance “JPH2 NT E85K (from UniProt Q9ET78 1-440) (domain or fragment)” registered a fold reduction in binding affinity against the wild type of 3 fold. Still for that read-out and setting: the result for “JPH2 NT A399S (A405S in mouse JPH2) (from UniProt Q9ET78 1-440) (domain or fragment)” reads 3 fold. With “JR-JBM chimera R160E/F165S (from UniProt Q9ET78 1-155; Q9ET78 168-440) (domain or fragment)”, the equilibrium dissociation constant (Kd) is 42 µM. Take “MBP-JPH2 NT S165F (mouse) (from UniProt Q9ET78 1-440) (domain or fragment)”: the fold decrease in binding affinity against the wild type is greater than 5 fold.
